Some results are limits rather than exact numbers.

Among the data in article PMC11708914 are fold enrichment over controls, fold enrichment over controls (empty vector or EYFP) and amount of UBA1 relative to controls values, retold here.

For assay [1], the target named is USUV HA-NS5 (HA-tagged Usutu virus NS5) (Usutu virus) (UniProt Q5WPU5). Kind of assay: co-IP; anti-HA agarose beads; lysates of transfected 293 T cells (lysis buffer with protease inhibitors and benzonase), overnight at 4 °C; UBA1 detected by Western blot.
The target of assay [2] is WNV HA-NS5 (HA-tagged West Nile virus NS5) (West Nile virus) (UniProt P06935). Described as above.
Assay [3] addresses ZIKV HA-NS5 (full-length Zika virus NS5 fused to an HA-tag in its N-terminus) (Zika virus). The assay is described as above.
Assay [4] addresses Recombinant His-tagged ZIKV NS5 (Zika virus). The assay can be described thus: pull-down; Ni-NTA agarose resin; 3 mg of whole-cell protein from 293 T cells incubated with 90 µg of recombinant His-tagged bait (BSA as control); UBA1 detected by Western blot. In general terms: In western blotting, separated proteins are transferred to a membrane and probed.

Sequence of UniProt Q5WPU5 (Q5WPU5 2530-3434): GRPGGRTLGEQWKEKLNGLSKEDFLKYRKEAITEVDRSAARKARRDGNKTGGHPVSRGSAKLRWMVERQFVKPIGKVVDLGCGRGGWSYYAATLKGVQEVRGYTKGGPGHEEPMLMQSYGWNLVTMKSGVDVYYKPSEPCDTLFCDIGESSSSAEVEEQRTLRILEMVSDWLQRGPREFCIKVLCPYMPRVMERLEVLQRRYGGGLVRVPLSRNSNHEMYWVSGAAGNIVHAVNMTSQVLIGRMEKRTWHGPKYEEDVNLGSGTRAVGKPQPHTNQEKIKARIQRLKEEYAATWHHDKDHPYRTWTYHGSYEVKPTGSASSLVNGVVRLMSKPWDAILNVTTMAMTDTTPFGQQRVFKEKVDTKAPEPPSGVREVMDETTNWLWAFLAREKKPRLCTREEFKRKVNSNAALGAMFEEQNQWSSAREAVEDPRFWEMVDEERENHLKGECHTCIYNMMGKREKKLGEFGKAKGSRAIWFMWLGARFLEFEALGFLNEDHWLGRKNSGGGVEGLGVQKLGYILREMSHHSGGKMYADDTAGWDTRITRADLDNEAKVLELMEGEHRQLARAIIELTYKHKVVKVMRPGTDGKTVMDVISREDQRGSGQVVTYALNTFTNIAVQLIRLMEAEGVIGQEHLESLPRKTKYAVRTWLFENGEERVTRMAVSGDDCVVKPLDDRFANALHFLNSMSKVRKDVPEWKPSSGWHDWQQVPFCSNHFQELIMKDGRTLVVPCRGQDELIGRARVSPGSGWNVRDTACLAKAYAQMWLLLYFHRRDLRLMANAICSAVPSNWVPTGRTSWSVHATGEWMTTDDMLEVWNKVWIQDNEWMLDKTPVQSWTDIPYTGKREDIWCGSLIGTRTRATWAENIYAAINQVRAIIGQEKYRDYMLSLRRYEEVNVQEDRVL
Sequence of UniProt P06935 (P06935 2526-3430): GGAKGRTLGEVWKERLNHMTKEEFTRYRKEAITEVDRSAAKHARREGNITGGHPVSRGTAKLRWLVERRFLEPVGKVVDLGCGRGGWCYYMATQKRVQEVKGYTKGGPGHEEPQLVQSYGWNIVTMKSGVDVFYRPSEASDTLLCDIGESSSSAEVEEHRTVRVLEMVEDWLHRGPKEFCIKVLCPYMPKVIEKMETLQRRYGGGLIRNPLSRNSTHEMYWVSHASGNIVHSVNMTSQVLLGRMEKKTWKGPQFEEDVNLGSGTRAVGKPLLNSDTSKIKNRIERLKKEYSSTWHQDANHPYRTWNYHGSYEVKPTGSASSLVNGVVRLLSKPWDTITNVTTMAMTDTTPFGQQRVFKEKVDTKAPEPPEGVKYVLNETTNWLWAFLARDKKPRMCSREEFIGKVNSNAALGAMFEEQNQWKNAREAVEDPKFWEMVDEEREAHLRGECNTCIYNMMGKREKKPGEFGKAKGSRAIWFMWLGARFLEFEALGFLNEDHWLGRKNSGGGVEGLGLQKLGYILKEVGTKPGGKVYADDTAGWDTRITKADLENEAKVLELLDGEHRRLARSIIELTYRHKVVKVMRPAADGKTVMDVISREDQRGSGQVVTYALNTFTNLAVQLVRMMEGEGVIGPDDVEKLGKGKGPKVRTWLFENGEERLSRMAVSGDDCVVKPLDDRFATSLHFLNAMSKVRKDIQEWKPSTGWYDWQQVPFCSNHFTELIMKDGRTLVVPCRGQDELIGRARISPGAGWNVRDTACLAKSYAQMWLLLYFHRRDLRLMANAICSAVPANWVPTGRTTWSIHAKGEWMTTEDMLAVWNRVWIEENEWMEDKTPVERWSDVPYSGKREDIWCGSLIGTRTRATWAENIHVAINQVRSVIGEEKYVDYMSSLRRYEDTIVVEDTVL

Consider “Ubiquitin-like modifier-activating enzyme 1 (UBA1), endogenous”, for which the fold enrichment over controls in assay [1] and in assay [2] was above 100 fold each time. The substance also came in with a fold enrichment over controls (empty vector or EYFP) in assay [3] above 100 fold. Besides, the amount of UBA1 relative to controls in assay [4] is above 4 times.
